Data from patent publication US8822407B2, “Preparation of conjugates comprising adenine derivatives and allergenic proteins and their use for specific immunotherapy of allengenic diseases” (Universita' Degli Studi di Firenze, priority 2010, dated 2014).

B1: nDer p2: purified natural allergen Der p2, major allergen from the house dust mite Dermatophagoides pteronyssinus (protein, UniProt P49278 18-146, looked up)
Mite group 2 allergen Der p 2: DQVDVKDCANHEIKKVLVPGCHGSEPCIIHRGKPFQLEAVFEANQNTKTAKIEIKASIDGLEVDVPGIDPNACHYMKCPLVKGQQYDIKYTWNVPKIAPKSENVVVTVKVMGDDGVLACAIATHAKIRD
modifications: natural purified
notes: purified natural allergen Der p2, major allergen from the house dust mite Dermatophagoides pteronyssinus

Columns and labels:
Assay type in all cases: cell-based, human
purified B cells = test: B cell activation (tritiated thymidine incorporation); conditions: for Stimulation index (mean ± SE): B cell proliferation
Procedure: Circulating mononuclear cells (MNC) are isolated by Ficoll-Hypaque density gradient from buffy coats of healthy donors (Servizio Immunotrasfusionale e terapie cellulari, Azienda Ospedaliero Universitaria Pediatrica A. Meyer, Firenze). 200×10^6 MNC are then separated using the commercial CD19 isolation kit (Miltenyi) by the addition of 400 μl iron microbead-bound anti-CD19 monoclonal antibody followed by magnetic separation on LS column. 20×10^6 B cells are isolated by positive selection and are extensively washed by the use of calcium- and magnesium-free PBS and cultured in triplicates at the concentration of 1×10^6/ml/well in complete medium plus 10% foetal calf serum in 96-U plates. […] Plates are incubated in humidified atmosphere at 37° C. for 72 hrs and at the end 0.5 μCi tritiated thymidine is added to each well for further 16 hrs. The incorporated radioactivity is measured as already described in step (f) of Example 4.

[1] = system: NF-κB p50 subunit in purified CD14+ cells; test: NF-κB activation: nuclear p50 in purified CD14+ cells; conditions: 2 hrs, allergens and conjugates 10 μg/ml, R-848 2 μg/ml
Procedure: The tubes are then incubated for 2 hrs in 5% CO2 humidified atmosphere at 37° C. and then washed with 10 ml PBS, centrifuged at 1500 rpm repeating the treatment thrice and the cellular pellet finally dried by the use of a micropipette and stored at −80° C. up to the assay. […] Two different protein amounts (0.5 and 2 μg) were incubated in 96w plates coated by the immobilized oligonucleotide containing the activated NF-κB consensus site (5′-[…]-3′), followed by the incubation with an antibody recognizing an epitope of the NF-κB p50 subunit. An HRP-conjugated secondary antibody was added to single wells and the colorimetric read-out was quantified by spectrophotometry. Values are reported as Optical Density. […] For the specificity of the assay, a wild-type consensus oligonucleotide was used as a competitor for NF-κB binding.

CRTH2 cells = test: Phenotype of allergen-specific CRTH2 cells; conditions: allergen 10 μg/ml, PMA and ionomicin
Procedure: Mononuclear cells from peripheral blood (MNC) are isolated by density gradient (Ficoll-Hypaque) using buffy coats from Dermatophagoides pteronyssinus-sensitized donors (Servizio Immunotrasfusionale e terapie cellulari, Azienda Ospedaliero Universitaria Pediatrica A. Meyer, Firenze). 500×10^6 MNC are separated by the addition of 500 μl anti-CRTH2 monoclonal antibody for 20 min at room temperature, then extensively washed and incubated again with a secondary polyclonal antibody bound to iron microbeads and finally positively selected on a magnetic column (LS column). 10×10^6 cells are recovered by positive selection, extensively washed with sterile calcium and magnesium-free PBS buffer and cultured at the concentration 1×10^6/ml/well in complete medium plus 5% human AB serum in 24-flat bottomed plates. As stimulants, unconjugated allergens (DP or nDer p2) or conjugates (DP-conj or nDer p2-conj) (all at 10 μg/ml) have been used. Cultures have been incubated for 6 days at 37° C. in 5% CO2 humidified atmosphere and further expanded with rIL-2 25 UI/ml until 14 days when T cell blasts are collected, extensively washed, counted, adjusted at 1×10^6/ml concentration and polyclonally stimulated with PMA and ionomicin as already described to assess the intracellular production of IL-4 and IFN-gamma.

[2] = system: allergen-specific T cell lines; test: Functional phenotype of allergen-specific cells with different ratios between allergen and modified adenine; conditions: T cell lines from atopic donors, Example 5 step d

Molecule	proliferation of purified B lymphocytes (in words) (purified B cells; thymidine incorporation)	p50 nuclear expression (NF-κB activation) [1]	% of cells expressing IFN-gamma+ (CRTH2 cells; Donor #3, CRTH2 cells) [%]	% of cells expressing IL-4+ (CRTH2 cells; Donor #3, CRTH2 cells) [%]	% of cells expressing IL-4+ IFN-gamma+ (CRTH2 cells; Donor #3, CRTH2 cells) [%]	% of cells expressing IFN-gamma+ (CRTH2 cells; Donor #4, CRTH2 cells) [%]	% of cells expressing IL-4+ (CRTH2 cells; Donor #4, CRTH2 cells) [%]	% of cells expressing IL-4+ IFN-gamma+ (CRTH2 cells; Donor #4, CRTH2 cells) [%]	Stimulation index (mean ± SE) (purified B cells; concentration 0.5 μg/ml)	Stimulation index (mean ± SE) (purified B cells; concentration 2.5 μg/ml)	Stimulation index (mean ± SE) (purified B cells; concentration 10 μg/ml)	% of cells expressing IFN-gamma+ [2] [%]	% of cells expressing IL-4+ [2] [%]
CCOCc1nc2c(N)nc3ccccc3c2n1CC(C)(C)O [Conj R-848, reference compound]	high levels of incorporation of radioactive thymidine												
Nc1nc(SCCCC(=O)ON2C(=O)CCC2=O)nc2c1nc(O)n2Cc1ccccc1 [SA-26E, 4-(6-Amino-9-benzyl-8-hydroxy-9H-purin-2-ylsulfanyl)-butyric acid 2,5-dioxo-pyrrolidin-1-yl ester]		completely inactive											
B1		inactive	5.8	47.6	1.3	2.0	78.2	2.3	1.6 ± 0.4	1.7 ± 0.2	1.7 ± 0.1	5	55.5
